Experimental data taken from patent US6858583B2, “Hemoglobin alpha chain peptide fragments useful for inhibiting stem cell proliferation” (Wellstat Therapeutics Corporation, priority 1993, dated 2005).

B1: macrophage inflammatory protein 1-alpha (protein, UniProt P10147 24-92, looked up)
C-C motif chemokine 3: SLAADTPTACCFSYTSRQIPQNFIADYFETSSQCSKPGVIFLTKRSRQVCADPSEEWVQKYVSDLELSA
B2: myoglobin: structurally related protein, inactive in the assay (protein, UniProt P02144 2-154, looked up)
Myoglobin: GLSDGEWQLVLNVWGKVEADIPGHGQEVLIRLFKGHPETLEKFDKFKHLKSEDEMKASEDLKKHGATVLTALGGILKKKGHHEAEIKPLAQSHATKHKIPVKYLEFISECIIQVLQSKHPGDFGADAQGAMNKALELFRKDMASNYKELGFQG

Experiments:
HPP-CFC = assay: High proliferative potential colony (HPP-CFC) assay after pre-incubation; format: cell-based, mouse; details: 200 ng/ml, 4 hours pre-incubation, day 14
Description: An in vitro assay for assessing murine reconstituting stem cells and early precursors is the high proliferative potential colony ([…]) assay; other related assays, e.g., CFU-A, CFU-GM, CFU-E, and CFU-GEMM, detect progressively restricted progenitor populations (M. Moore, Blood 177:2122-2128, 1991). […] BDF1 mice were treated with 5-fluorouracil (200 mg/kg i.p.) before their bone marrow was assayed for HPP-CFC numbers. Cells were washed by centrifugation and incubated at densities of 10^6 to 5×10^6 /ml in medium with either no added agent (Controls), pINPROL (25 ng/ml) or MIP-1α (200 ng/ml) for 4 hours. After incubation, cells were washed and plated in agar (0.3%) with 30% FCS and combined conditioned medium from 5637 and WEHI-3B cell lines (7.5% of each conditioned medium, as recommended by Sharp et al., 1991). Plating concentration was 5×10^4 cells/ml in 60 mm dishes.

CFU-MIX = CFU-MIX cycling assay in vitro with Ara C; format: cell-based, mouse
Description: A similar assay can be performed in vitro, using the cycling status of CFU-MIX instead of CFU-S. The assay is performed as described above for the CFU-S assay except that cytosine arabinoside (Ara C, 30 mg/ml) is used as the cycle-specific toxic agent instead of high dose tritiated thymidine (see B. I. Lord in Haemopoiesis—A Practical Approach, N. G. Testa and G. Molineux (Eds.), IRL Press 1993; Pragnell et al. in Culture of Hematopoietic Cells, R. I. Freshney, I. B. Pragnell and M. G. Freshney (Eds.), Wiley Liss 1994) and a mouse strain with high endogenous cycling rates (Balb/c) is used instead of testosterone-treated BDF1 mice.
To test the activity of these sequences, the CFU-MIX cycling assay was conducted as described in Example 14. As shown in Tables 17-19, these peptides all are active in this assay.

Molecule	% of Control (HPP-CFU) (HPP-CFC) [%]	activity in the CFU-MIX cycling assay (CFU-MIX)
B1	101	
B2		inactive
